This note sets out measurements from PMC12101500, “Mechanism of D-type cyclin recognition by the AMBRA1 E3 ligase receptor” (Science Advances, 2025).

Where no end group is shown, it is not given here. [ ]: non-standard residue; d: D form. pT = C[C@@H](OP(=O)(O)O)[C@H](N)C(=O)O

Assay [1] deals with DDB1-AMBRA1^WD40 complex (human) (UniProt Q9C0C7). Kind of assay: ITC; peptide (100 μM) titrated into AMBRA1^WD40-DDB1 complex (10 μM); 25°C; 50 mM Hepes pH 7.4, 200 mM NaCl, 2 mM MgCl2, 1 mM TCEP; single-site binding model.
For a further assay, the target named is DDB1-AMBRA1 WD40 (Homo sapiens, UniProt Q16531). Nature of the assay: ITC. On the technique in general: Isothermal titration calorimetry measures the heat released or taken up as one component is titrated into another.
In assay [2] the target is T1, TSF–cyclin D1 (full-length) (human, UniProt P24385 1-295, phosphothreonine at 286 (found in the reconstituted complex by Western blotting and MS)).
T1 construct: cyclin D1, human; also called Twin-Strep-FLAG–cyclin D1; source: Expi293F, co-transfected; in lysate (pull-downs) and purified in complexes (MBP or GST beads, TEV digestion, Strep-tactin, Superdex 200); not shown: Twin-Strep-FLAG (TSF), N-terminal, kept
Nature of the assay: cryo-EM structure; DDB1–AMBRA1^WD40–cyclin D1–CDK4EE complex co-expressed in Expi293F and purified (MBP beads, TEV, Strep-tactin, Superdex 200); 0.3 mg/ml; 3.55 Å. To be noted: both partners purified.

By Kd is commonly meant the equilibrium constant for the complex coming apart. Lower therefore signals a tighter complex.

T1 sequence (P24385 whole entry): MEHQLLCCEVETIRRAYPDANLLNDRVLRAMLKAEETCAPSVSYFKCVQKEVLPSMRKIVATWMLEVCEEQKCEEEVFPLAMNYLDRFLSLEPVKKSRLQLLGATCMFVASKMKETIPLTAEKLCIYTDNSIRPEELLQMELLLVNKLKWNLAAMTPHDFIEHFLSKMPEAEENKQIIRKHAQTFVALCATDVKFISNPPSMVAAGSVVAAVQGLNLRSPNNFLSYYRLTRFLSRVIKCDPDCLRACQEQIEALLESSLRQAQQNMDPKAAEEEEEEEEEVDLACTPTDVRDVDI

For “T286-phosphorylated cyclin D1 peptide (residues 284 to 295)”, the Kd in assay [1] was found to be 210 nM.
For the molecule Ac-AC[pT]PTDVRDVDI [cyclin D1 284-295], in the assay with DDB1-AMBRA1 WD40, the Kd was ~200 nM.

B1: AMBRA1^WD40 (residues M1 to N204 directly fused to S853 to G1044), MBP removed (domain or fragment, human, UniProt Q9C0C7 1-204, looked up)
chain: MKVVPEKNAVRILWGRERGARAMGAQRLLQELVEDKTRWMKWEGKRVELPDSPRSTFLLAFSPDRTLLASTHVNHNIYITEVKTGKCVHSLIGHRRTPWCVTFHPTISGLIASGCLDGEVRIWDLHGGSESWFTDSNNAIASLAFHPTAQLLLIATANEIHFWDWSRREPFAVVKTASEMERVRLVRFDPLGHYLLTAIVNPSNSNIANTTYRLQWWDFTKFDLPEISNASVNVLVQNCKIYNDASCDISADGQLLAAFIPSSQRGFPDEGILAVYSLAPHNLGEMLYTKRFGPNAISVSLSPMGRYVMVGLASRRILLHPSTEHMVAQVFRLQQAHGGETSMRRVFNVLYPMPADQRRHVSINSARWLPEPGLGLAYGTNKGDLVICRPEALNSG
notes: AMBRA1, human, residues M1 to N204, directly fused to S853; AMBRA1, human, residues S853 to G1044; Same construct as m5, after TEV digestion; the gene was codon optimized; also called AMBRA1 WD40 domain; AMBRA1^WD40 WT; source: Expi293F, co-expressed, purified in complex (MBP beads, TEV digestion, Strep-tactin and/or Superdex 200); not shown: MBP, N-terminal, cleaved
In the case of B1, the binding result in assay [2] is reported as “binds”.
